Laboratory results taken from the supplement of paper PMC10567573.

B1: KRT15 (parent)
chain: FGGGSTRGGSLLAGGGGFGGGSLS
B2: WDR41 (parent)
chain: HVGELIIWDALDWTMQAYERNFWD

Variants of: B1
Experiment: protein stability index of a GFP-peptide fusion (GPS, HEK-293T) (PSI 1-6); higher = more stable
Conditions: c terminus: a fixed tail appended
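Note: lentivirally expressed fusions sorted by FACS into six bins by GFP to DsRed ratio, PSI derived from sequencing read proportions per bin multiplied by bin number.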

In order of falling protein stability index:
1. S10W  4.19
2. S24M  3.68
3. G8F  3.67
4. L12R  3.6
5. F1S  3.46
6. A13D  3.4
7. L12D  3.38
8. G17T  3.32
9. G9Q  3.25
10. L12P  3.24
11. G2K  3.23
12. L12G  3.23
13. G3I  3.22
14. G20P  3.18
15. G15K  3.17
16. G19I  3.12
17. G19K  3.1
18. R7P  3.05
19. G15H  3.02
20. L12N  3.01
21. F18H  3
22. G2N  2.94
23. G4P  2.94
24. G14N  2.94
25. L11A  2.83
26. S22R  2.82
27. G19F  2.8
28. G2R  2.79
29. L11N  2.78
30. L12I  2.75
31. G3M  2.74
32. G17E  2.74
33. G9D  2.73
34. L23M  2.73
35. L12E  2.72
36. L12Q  2.67
37. A13R  2.67
38. S24P  2.66
39. G21P  2.65
40. G4W  2.61
41. G4I  2.59
42. L12M  2.58
43. G4E  2.55
44. S5Q  2.55
45. G2W  2.54
46. A13H  2.53
47. T6F  2.52
48. G20Y  2.52
49. S24T  2.51
50. G8R  2.5
51. S22F  2.49
52. G21N  2.48
53. G2F  2.47
54. G14S  2.43
55. G3L  2.42
56. G14R  2.42
57. G16Q  2.4
58. G9N  2.35
59. G19E  2.35
60. R7K  2.32
61. S22H  2.29
62. G3R  2.26
63. L23G  2.26
64. F1Y  2.25
65. G4H  2.22
66. F18P  2.21
67. G3Y  2.2
68. G3Q  2.17
69. G4Q  2.17
70. G14P  2.17
71. G20N  2.17
72. G16M  2.16
73. G2M  2.15
74. G4K  2.15
75. G16K  2.14
76. A13M  2.13
77. S10P  2.12
78. S5F  2.1
79. A13L  2.1
80. G20K  2.1
81. F1M  2.08
82. L11R  2.08
83. G15R  2.08
84. G19S  2.06
85. S22T  2.05
86. G4L  2.04
87. G2Q  2
88. G19N  2
89. L11Y  1.97
90. G2P  1.96
91. L23Q  1.96
92. G21S  1.95
93. A13C  1.94
94. A13V  1.94
95. G3N  1.93
96. G15A  1.9
97. G16Y  1.9
98. G4M  1.89
99. S10Q  1.89
100. G14I  1.85
101. G9V  1.84
102. G16D  1.84
103. S24I  1.84
104. G8T  1.8
105. G3A  1.79
106. S10I  1.79
107. G4F  1.77
108. G20S  1.77
109. F18I  1.76
110. G2S  1.75
111. G21D  1.75
112. G20T  1.74
113. S24N  1.71
114. G3F  1.7
115. R7N  1.7
116. L12C  1.7
117. G4S  1.68
118. T6K  1.66
119. G8E  1.64
120. G17S  1.64
121. G17H  1.63
122. T6E  1.62
123. G8S  1.62
124. L23I  1.61
125. S24D  1.61
126. L11M  1.6
127. S22L  1.6
128. G4R  1.58
129. G8I  1.58
130. S5A  1.57
131. G8D  1.57
132. L11I  1.56
133. G15C  1.56
134. G16R  1.56
135. G16E  1.55
136. R7D  1.54
137. S5P  1.53
138. L12Y  1.52
139. G21L  1.52
140. G3H  1.51
141. S24K  1.49
142. T6H  1.48
143. S22Q  1.48
144. G19D  1.47
145. A13I  1.46
146. G17K  1.41
147. G17N  1.41
148. G20C  1.41
149. S10R  1.4
150. G4C  1.37
151. G15V  1.34
152. G21I  1.34
153. T6M  1.33
154. G3D  1.32
155. G3W  1.29
156. S10K  1.28
157. G16V  1.28
158. G21R  1.24
159. T6V  1.23
160. G17V  1.23
161. G16T  1.09
162. G20Q  1.09
163. G17M  1.07
164. G9S  1.05
165. G17C  1.03
166. L11F  1

Variants of: B2
Experiment: as above
Conditions: c terminus: a fixed tail appended

In order of rising protein stability index:
1. A10N  1.05
2. V2R  1.09
3. A10K  1.09
4. D12Y  1.11
5. I6G  1.22
6. I7C  1.26
7. H1E  1.27
8. W8T  1.28
9. W8N  1.3
10. I6E  1.36
11. I7T  1.41
12. W8Y  1.42
13. L11T  1.46
14. L5S  1.47
15. I6C  1.47
16. H1N  1.48
17. V2N  1.48
18. H1P  1.49
19. L5R  1.5
20. A10P  1.5
21. V2E  1.51
22. W8S  1.51
23. I7M  1.52
24. W13P  1.52
25. V2P  1.54
26. D9L  1.54
27. I6R  1.55
28. L5H  1.56
29. H1R  1.58
30. V2A  1.58
31. I6H  1.59
32. I7V  1.59
33. W13E  1.59
34. A10D  1.6
35. W8H  1.61
36. A10H  1.61
37. L11A  1.61
38. I6Q  1.62
39. A10S  1.63
40. V2G  1.65
41. I6S  1.66
42. W8K  1.67
43. W13N  1.69
44. G3L  1.72
45. I6A  1.75
46. L11D  1.77
47. I7G  1.8
48. E4P  1.81
49. I6D  1.81
50. G3S  1.84
51. E4K  1.84
52. E4G  1.85
53. E4D  1.86
54. G3E  1.87
55. G3R  1.87
56. I6T  1.87
57. I7A  1.87
58. W8C  1.88
59. G3N  1.89
60. H1Q  1.9
61. V2T  1.92
62. L5G  1.92
63. L5N  1.93
64. I7L  1.93
65. L5T  1.94
66. L5A  1.95
67. A10G  1.95
68. I7K  1.96
69. V2C  1.97
70. L5M  1.97
71. W8Q  1.98
72. W13A  1.98
73. L5P  1.99
74. I7R  1.99
75. H1T  2.01
76. V2D  2.01
77. L11P  2.03
78. H1C  2.04
79. W13H  2.04
80. G3K  2.06
81. L11H  2.06
82. I7D  2.07
83. D9K  2.07
84. W13D  2.07
85. V2I  2.08
86. L11Y  2.08
87. D12P  2.1
88. I7Q  2.11
89. H1L  2.13
90. E4H  2.13
91. L5Q  2.13
92. W8E  2.13
93. E4M  2.15
94. D12K  2.15
95. W8P  2.16
96. L5D  2.17
97. I6N  2.17
98. I7H  2.17
99. H1Y  2.18
100. I7N  2.19
101. L11C  2.2
102. L5K  2.21
103. L11N  2.23
104. W8V  2.29
105. D9C  2.29
106. I7S  2.33
107. E4S  2.34
108. V2K  2.35
109. V2Q  2.35
110. G3D  2.35
111. I6M  2.35
112. W13K  2.37
113. I6Y  2.39
114. W8I  2.39
115. I6P  2.41
116. I7E  2.41
117. G3Y  2.42
118. E4N  2.42
119. V2H  2.44
120. I7W  2.44
121. E4Q  2.46
122. V2S  2.47
123. G3H  2.49
124. I6W  2.51
125. W13C  2.51
126. G3Q  2.54
127. D9F  2.57
128. V2M  2.59
129. L11K  2.67
130. V2F  2.69
131. D9R  2.69
132. I7Y  2.71
133. H1K  2.73
134. W8D  2.74
135. I6K  2.75
136. W8R  2.78
137. W8A  2.8
138. D12V  2.81
139. G3T  2.82
140. L11R  2.83
141. E4A  2.85
142. W8M  2.85
143. L11Q  2.86
144. I7P  2.87
145. D9H  2.88
146. W8G  2.89
147. E4L  2.92
148. D9W  2.99
149. D9M  3
150. L11V  3.1
151. L5Y  3.11
152. E4Y  3.22
153. D12F  3.35
154. A10W  3.36
155. H1S  3.37
156. D9T  3.42
157. H1M  3.52
158. E4V  3.53
159. L5F  3.54
160. A10T  3.56
161. D9P  3.61
162. E4F  3.77
163. W8L  3.77
164. V2L  3.8
165. L11I  3.82
166. H1I  4.28
167. G3V  4.45
168. W13F  4.66
